Sequences and labels used below:
B1: S527 (peptide)
peptide: H[Ac6c]CAQE[dW]GSEL[Tic]QCSGSESFYDWFERQL
modifications: not fully specified (bridges); printed as H-Acy-CAQEwGSEL-Tic-QCSGSESFYDWFERQL; cysteine pairing not given here
notes: leading H- read as His; it may mean a free N-terminus
B2: S591 (peptide)
peptide: LEEEWAQIECEVWGRGCSGSLDESF[Tyr(3-I)]DWFERQLG
modifications: not fully specified (bridges); printed as LEEEWAQIECEVWGRGCSGSLDESF-IodoTyr-DWFERQLG; cysteine pairing not given here
B3: S546 (peptide)
peptide: SLEEEWAQVECEV[Bpa]GRGCPSGSLDESFYDWFERQ[Bpa]GK(Biotin)
modifications: not fully specified (bridges); printed as SLEEEWAQVECEV-Bpa-GRGCPSGSLDESFYDWFERQ-Bpa-GK(Biotin); cysteine pairing not given here

Non-standard residues stand in square brackets, D forms with d. No end group written: not given here. *: point of attachment. Biotin = O=C1N[C@H]2[C@H](CS[C@H]2CCCCC(=O)*)N1; Bpa = N[C@@H](Cc1ccc(C(=O)c2ccccc2)cc1)C(=O)O; Tyr(3-I) = N[C@@H](Cc1ccc(O)c(I)c1)C(=O)O; Tic = O=C(O)[C@@H]1Cc2ccccc2CN1; Ac6c = NC1(C(=O)O)CCCCC1

Our source for the Kd values is patent US20030236190A1 (published 2003).

This test concerns the target human insulin receptor (HIR) (human, UniProt P06213 28-1382, limits assumed). The test is described as follows: 125I-insulin competition, solubilised HIR.
In general, Kd refers to a measure of binding affinity in units of concentration. In the case of B1, the dissociation constant (Kd) was determined as 2400 pM.
In turn, SLEEEWAQIEEVWGRGPSESFYDWFERQLG (label printed as 3569; also called 3569) [S569] displayed a Kd of 150 pM.
The molecule SLEEEWAWVECEVYGRGCPSGSLDESFYDWFERQL [S532] had an equilibrium dissociation constant (Kd) of 37 pM.
Next, RLEEEWAWVQCEVYGRGCPSGSLDESFYDWFERQLG [S518]: 160 pM.
Molecule SLEEEWAQVECEVYGRGCPSGSLDESFYH[dW]FERQLG (cysteine pairing not given here) [S542] registered a Kd of 27 pM.
In the case of SLEEEWAQVECEVWGRGCPSGSLDESFYDWFERQLG [S541], the Kd was found to be 7.8 pM.
SLELEWAQVECEVYGRGCPSGSLDESFYDWFERQLG [S539] displayed a Kd of 98 pM.
In turn, SLEEEWAQVEAEVYGRGAPSGSLDESFYDWFERQLG [S551] came in with a Kd of 72 pM.
For SLEQEWAQVECEVYGRGCPSGSLDESFYDWFERQLG [S538], binding was characterised by a dissociation constant (Kd) of 38 pM.
Next, SLEHEWAQVECEVYGRGCPSGSLDESFYDWFERQLG [S537]: 44 pM; SLEEEWAQVKCEVYGRGCPSGSLDESFYDWFERQLG [S540]: 13 pM.
Next, SLEEEWAQIECEVYGRGCPSESFYDWFERQLG [S554]: 6.4 pM; SLEEEWAQIEAEVWGRGAPSESFYDWFERQLG [S574]: 9.2 pM; SLEEEWAQVECEVYGRGCPSESFYDWF[dV]RQLG (cysteine pairing not given here) [S555]: 57 pM.
Then SLEEEWAQVECEVYGRGCXESFYDWFERQLG (not fully specified; X19 = βturn (unit not explained)) [S580], with 12 pM.
For the molecule SLEEEWAQIQCEVWGRCSESFYDWFERQL [S564], binding was put at a Kd of 13 pM.
In turn, GSLDESFYDWFERQLGK (N-terminal acetyl; POX (not explained) between G16 and K17) [S550] displayed a Kd of 40000 pM.
Molecule SLEEEWAQVECEVYGRGCPS [S547] displayed an equilibrium dissociation constant (Kd) of 49000 pM.
Next, SLEEEWAQVECEVWGRGCPS [S548]: 4100 pM.
Then WLDQEWAWVQCEVYGRGCPSDSDWAGYEWFEEQLD [S523], with 4300 pM; and SLEEEWAQVECEVYGRGCPSFYDWFERQL [S531], with 75 pM; and Ac-SIEEEWAQIKCDVWGRGPSESFYDWFERQLG [S568], with 4.3 pM.
Next, SLEEEWAQIECEVYGRGCPSESFYDWFERQL [S557]: 20 pM; SLEEEWAWVQCEVYGRGCPSESFYDWFERQL [S534]: 10 pM; SLEEEWAQIECEVWGRGCPSESFYDWFERQL [S558]: 19 pM.
In turn, SLEEEWAQIQCEVWGRGCPSESFYDWFERQL [S606] showed a dissociation constant (Kd) of 4 pM.
Then SLEEEWAQVECEVYGRGCPSESFYDWFERQL [S530], with 8 pM; and SIEEEWAQIKCDVWGRGCPSESFYDWFERQL [S517], with 600 pM; and SIEEEWAQIKCDVWGRGCPSY [S593], with 22 pM.
Then SLEEEWAQIEEVWGRPSESFYDWFERQLG [S570], with 730 pM.
SLEEEWAQIEEVWGRGSESFYDWFERQLG [S571] displayed an equilibrium dissociation constant (Kd) of 1600 pM.
Next, SLEEEWAQIECEVWGRGCSGSLDESFYDWFERQL [S561]: 15 pM; SLEEEWAQIESEVWGRSESFYDWFERQLG [S573]: 36 pM; LEEEWAQIECEV[Tyr(3-I)]GRGCSGSLDESFYDWFERQLG (cysteine pairing not given here) [S590]: 58 pM.
Consider LEEEWAQVECEV[Tyr(3-I)]GRGCSGSLDESFYDWFERQLG (cysteine pairing not given here) [S588], for which binding was put at a Kd of 180 pM.
B2 returned a Kd of 130 pM.
On to SIEEEWAQIKCDVWGRCSESFYDWFERQL [S562], for which the dissociation constant Kd was 18 pM.
Then Ac-SIEEEWAQIKCDVWGRGSESFYDWFERQL [S600], with 7.6 pM.
Next, HHHHHHKLDQEWAWVQCEVYGRGCPSESFYDWFERQLG [S481]: 13000 pM; SLEEEWAQIECEVWGRCWHHSFYDWFERQL [S594]: 71 pM; SLEEEWAQVECEVYGRGCPPGLLDESFYHWFDRQLR [S553]: 7.3 pM.
SLEEEWAQIESEVWGRXESFYDWFERQLG (X17 = βturn (unit not explained)) [S581] showed an equilibrium dissociation constant (Kd) of 12 pM.
Regarding SLEEEWAQIECEVWGRGCSESFYDWFERQL [S559], the Kd amounted to 21 pM.
The molecule SIEEEWAQIKCDVWGRGCSESFYDWFERQL [S556] returned a Kd of 32 pM.
Molecule SLEEEWAQIQCEVWGR[dN][dC]SESFYDWFERQL (cysteine pairing not given here) [S563] gave a dissociation constant (Kd) of 14 pM.
With SIEEEWAQIKCDVWGRGCPPGLLDESFYHWFDRQLR [S520], the affinity, expressed as Kd, was 20 pM.
Next, SLEEEWAQIECEVWGRGCPSY [S592]: 1700 pM; SLEEEWAQIECEVWGRGCPKGFYGWFRRRG [S582]: 2500 pM; SLEEEWAQVECEVYGRGCSGSLDESFYDWFERQLG [S549]: 13 pM.
SLEEEWAQIECEVWGRGCPKGFYGWFRRRRG [S584] had a Kd of 9300 pM.
Then SLEEEWAQIEEVWGRSESFYDWFERQLG [S572], with 4800 pM; and HLCVLEELFWGASLFGYCSGGSLDESFYDWFERQL [S521], with 27000 pM.
Then B3, with 26000 pM.
